Data on 2 molecules can be found in PMC5344419, “The structure of FKBP38 in complex with the MEEVD tetratricopeptide binding-motif of Hsp90” (PLoS ONE, 2017).

The test system of the data set is yeast Hsp90. The data set can be described thus: ATPase activity of yeast Hsp90. In kind it is biochemical. To be noted: ATPase assay, 5-molar excess of FKBP^92-380 over Hsp90 (Fig 7).

Entries after “also recorded” stand apart in the source; their conditions may differ.

B1: FKBP8: immunophilin with N-terminal glutamate rich region, PPIase domain and tetratricopeptide domain; construct not specified at the place (protein)
chain: MASCAEPSEPSAPLPAGVPPLEDFEVLDGVEDAEGEEEEEEEEEEEDDLSELPPLEDMGQPPAEEAEQPGALAREFLAAMEPEPAPAPAPEEWLDILGNGLLRKKTLVPGPPGSSRPVKGQVVTVHLQTSLENGTRVQEEPELVFTLGDCDVIQALDLSVPLMDVGETAMVTADSKYCYGPQGRSPYIPPHAALCLEVTLKTAVDGPDLEMLTGQERVALANRKRECGNAHYQRADFVLAANSYDLAIKAITSSAKVDMTFEEEAQLLQLKVKCLNNLAASQLKLDHYRAALRSCSLVLEHQPDNIKALFRKGKVLAQQGEYSEAIPILRAALKLEPSNKTIHAELSKLVKKHAAQRSTETALYRKMLGNPSRLPAKCPG
modifications: left off: His6, C-terminal, kept
notes: immunophilin with N-terminal glutamate rich region, PPIase domain and tetratricopeptide domain; construct not specified at the place
Regarding B1, the “effect on ATPase activity of Hsp90” value was “did not substantially influence; also recorded: did not show any substantial effect”.

B2: FKBP^92-380: fragment containing both the immunophilin and TPR domain (protein)
chain: EWLDILGNGLLRKKTLVPGPPGSSRPVKGQVVTVHLQTSLENGTRVQEEPELVFTLGDCDVIQALDLSVPLMDVGETAMVTADSKYCYGPQGRSPYIPPHAALCLEVTLKTAVDGPDLEMLTGQERVALANRKRECGNAHYQRADFVLAANSYDLAIKAITSSAKVDMTFEEEAQLLQLKVKCLNNLAASQLKLDHYRAALRSCSLVLEHQPDNIKALFRKGKVLAQQGEYSEAIPILRAALKLEPSNKTIHAELSKLVKKHAAQRSTETALYRKMLGNPSRLPAKCPG
modifications: left off: His6 (from the vector pDMXV4), C-terminal, kept
notes: fragment containing both the immunophilin and TPR domain
On to B2, for which the “effect on ATPase activity of Hsp90” value is “did not substantially alter”.
